{"source": "paper PMC12416549", "about": "(2024)", "molecular_target": "T1, TNFR1 (Homo sapiens, UniProt P19438)", "T1 chain": "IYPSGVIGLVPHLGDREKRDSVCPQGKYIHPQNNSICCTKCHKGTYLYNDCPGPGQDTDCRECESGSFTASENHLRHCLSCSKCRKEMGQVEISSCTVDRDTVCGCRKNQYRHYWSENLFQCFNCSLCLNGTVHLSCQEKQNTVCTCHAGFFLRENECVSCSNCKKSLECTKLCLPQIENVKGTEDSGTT", "assay": "yeast display SC50"}
{"binder": "E78K (designed binder) SMEEEVEKAAKEYEKKKKEAIEKHLEKLKAKDKEAAERFLKELEEAAKEYAKDEAKTMSEEEAKRRAKKYKEKVLLSKLSEEEQKEIKEAEEKLVRTILKYVEEAAK", "values": [{"measurement": "apparent Kd (screen)", "value": 4.83, "unit": "nM"}]}
{"binder": "K29G (designed binder) SMEEEVEKAAKEYEKKKKEAIEKHLEKLGAKDKEAAERFLKELEEAAKEYAKDEAKTMSEEEAKRRAKKYKEKVLLSELSEEEQKEIKEAEEKLVRTILKYVEEAAK", "values": [{"measurement": "apparent Kd (screen)", "value": 0.446, "unit": "nM"}]}
{"binder": "V74D (designed binder) SMEEEVEKAAKEYEKKKKEAIEKHLEKLKAKDKEAAERFLKELEEAAKEYAKDEAKTMSEEEAKRRAKKYKEKDLLSELSEEEQKEIKEAEEKLVRTILKYVEEAAK", "values": [{"measurement": "apparent Kd (screen)", "value": 0.405, "unit": "nM"}]}
{"binder": "T57M (designed binder) SMEEEVEKAAKEYEKKKKEAIEKHLEKLKAKDKEAAERFLKELEEAAKEYAKDEAKMMSEEEAKRRAKKYKEKVLLSELSEEEQKEIKEAEEKLVRTILKYVEEAAK", "values": [{"measurement": "apparent Kd (screen)", "value": 0.446, "unit": "nM"}]}
{"binder": "Y13A (designed binder) SMEEEVEKAAKEAEKKKKEAIEKHLEKLKAKDKEAAERFLKELEEAAKEYAKDEAKTMSEEEAKRRAKKYKEKVLLSELSEEEQKEIKEAEEKLVRTILKYVEEAAK", "values": [{"measurement": "apparent Kd (screen)", "value": 0.49, "unit": "nM"}]}
{"binder": "L76N (designed binder) SMEEEVEKAAKEYEKKKKEAIEKHLEKLKAKDKEAAERFLKELEEAAKEYAKDEAKTMSEEEAKRRAKKYKEKVLNSELSEEEQKEIKEAEEKLVRTILKYVEEAAK", "values": [{"measurement": "apparent Kd (screen)", "value": 2.73, "unit": "nM"}]}
{"binder": "H24S (designed binder) SMEEEVEKAAKEYEKKKKEAIEKSLEKLKAKDKEAAERFLKELEEAAKEYAKDEAKTMSEEEAKRRAKKYKEKVLLSELSEEEQKEIKEAEEKLVRTILKYVEEAAK", "values": [{"measurement": "apparent Kd (screen)", "value": 0.869, "unit": "nM"}]}
{"binder": "M58T (designed binder) SMEEEVEKAAKEYEKKKKEAIEKHLEKLKAKDKEAAERFLKELEEAAKEYAKDEAKTTSEEEAKRRAKKYKEKVLLSELSEEEQKEIKEAEEKLVRTILKYVEEAAK", "values": [{"measurement": "apparent Kd (screen)", "value": 4.83, "unit": "nM"}]}
{"binder": "A35P (designed binder) SMEEEVEKAAKEYEKKKKEAIEKHLEKLKAKDKEPAERFLKELEEAAKEYAKDEAKTMSEEEAKRRAKKYKEKVLLSELSEEEQKEIKEAEEKLVRTILKYVEEAAK", "values": [{"measurement": "apparent Kd (screen)", "value": 1.4, "unit": "nM"}]}
{"binder": "K69N (designed binder) SMEEEVEKAAKEYEKKKKEAIEKHLEKLKAKDKEAAERFLKELEEAAKEYAKDEAKTMSEEEAKRRAKNYKEKVLLSELSEEEQKEIKEAEEKLVRTILKYVEEAAK", "values": [{"measurement": "apparent Kd (screen)", "value": 2.48, "unit": "nM"}]}
{"binder": "K56H (designed binder) SMEEEVEKAAKEYEKKKKEAIEKHLEKLKAKDKEAAERFLKELEEAAKEYAKDEAHTMSEEEAKRRAKKYKEKVLLSELSEEEQKEIKEAEEKLVRTILKYVEEAAK", "values": [{"measurement": "apparent Kd (screen)", "value": 4.83, "unit": "nM"}]}
{"binder": "Y70I (designed binder) SMEEEVEKAAKEYEKKKKEAIEKHLEKLKAKDKEAAERFLKELEEAAKEYAKDEAKTMSEEEAKRRAKKIKEKVLLSELSEEEQKEIKEAEEKLVRTILKYVEEAAK", "values": [{"measurement": "apparent Kd (screen)", "value": 20.2, "unit": "nM"}]}
{"binder": "K71D (designed binder) SMEEEVEKAAKEYEKKKKEAIEKHLEKLKAKDKEAAERFLKELEEAAKEYAKDEAKTMSEEEAKRRAKKYDEKVLLSELSEEEQKEIKEAEEKLVRTILKYVEEAAK", "values": [{"measurement": "apparent Kd (screen)", "value": 16.7, "unit": "nM"}]}
{"binder": "T57V (designed binder) SMEEEVEKAAKEYEKKKKEAIEKHLEKLKAKDKEAAERFLKELEEAAKEYAKDEAKVMSEEEAKRRAKKYKEKVLLSELSEEEQKEIKEAEEKLVRTILKYVEEAAK", "values": [{"measurement": "apparent Kd (screen)", "value": 0.49, "unit": "nM"}]}
{"binder": "E81H (designed binder) SMEEEVEKAAKEYEKKKKEAIEKHLEKLKAKDKEAAERFLKELEEAAKEYAKDEAKTMSEEEAKRRAKKYKEKVLLSELSHEEQKEIKEAEEKLVRTILKYVEEAAK", "values": [{"measurement": "apparent Kd (screen)", "value": 0.593, "unit": "nM"}]}
{"binder": "Y50L (designed binder) SMEEEVEKAAKEYEKKKKEAIEKHLEKLKAKDKEAAERFLKELEEAAKELAKDEAKTMSEEEAKRRAKKYKEKVLLSELSEEEQKEIKEAEEKLVRTILKYVEEAAK", "values": [{"measurement": "apparent Kd (screen)", "value": 0.79, "unit": "nM"}]}
{"binder": "E44K (designed binder) SMEEEVEKAAKEYEKKKKEAIEKHLEKLKAKDKEAAERFLKELKEAAKEYAKDEAKTMSEEEAKRRAKKYKEKVLLSELSEEEQKEIKEAEEKLVRTILKYVEEAAK", "values": [{"measurement": "apparent Kd (screen)", "value": 0.956, "unit": "nM"}]}
{"binder": "K93Q (designed binder) SMEEEVEKAAKEYEKKKKEAIEKHLEKLKAKDKEAAERFLKELEEAAKEYAKDEAKTMSEEEAKRRAKKYKEKVLLSELSEEEQKEIKEAEEQLVRTILKYVEEAAK", "values": [{"measurement": "apparent Kd (screen)", "value": 0.49, "unit": "nM"}]}
{"binder": "K68P (designed binder) SMEEEVEKAAKEYEKKKKEAIEKHLEKLKAKDKEAAERFLKELEEAAKEYAKDEAKTMSEEEAKRRAPKYKEKVLLSELSEEEQKEIKEAEEKLVRTILKYVEEAAK", "values": [{"measurement": "apparent Kd (screen)", "value": 7.07, "unit": "nM"}]}
{"binder": "T97V (designed binder) SMEEEVEKAAKEYEKKKKEAIEKHLEKLKAKDKEAAERFLKELEEAAKEYAKDEAKTMSEEEAKRRAKKYKEKVLLSELSEEEQKEIKEAEEKLVRVILKYVEEAAK", "values": [{"measurement": "apparent Kd (screen)", "value": 2.73, "unit": "nM"}]}
{"binder": "A106G (designed binder) SMEEEVEKAAKEYEKKKKEAIEKHLEKLKAKDKEAAERFLKELEEAAKEYAKDEAKTMSEEEAKRRAKKYKEKVLLSELSEEEQKEIKEAEEKLVRTILKYVEEAGK", "values": [{"measurement": "apparent Kd (screen)", "value": 0.79, "unit": "nM"}]}
{"binder": "K93W (designed binder) SMEEEVEKAAKEYEKKKKEAIEKHLEKLKAKDKEAAERFLKELEEAAKEYAKDEAKTMSEEEAKRRAKKYKEKVLLSELSEEEQKEIKEAEEWLVRTILKYVEEAAK", "values": [{"measurement": "apparent Kd (screen)", "value": 2.73, "unit": "nM"}]}
{"binder": "A20D (designed binder) SMEEEVEKAAKEYEKKKKEDIEKHLEKLKAKDKEAAERFLKELEEAAKEYAKDEAKTMSEEEAKRRAKKYKEKVLLSELSEEEQKEIKEAEEKLVRTILKYVEEAAK", "values": [{"measurement": "apparent Kd (screen)", "value": 1.16, "unit": "nM"}]}
{"binder": "L28M (designed binder) SMEEEVEKAAKEYEKKKKEAIEKHLEKMKAKDKEAAERFLKELEEAAKEYAKDEAKTMSEEEAKRRAKKYKEKVLLSELSEEEQKEIKEAEEKLVRTILKYVEEAAK", "values": [{"measurement": "apparent Kd (screen)", "value": 0.956, "unit": "nM"}]}
{"binder": "A36D (designed binder) SMEEEVEKAAKEYEKKKKEAIEKHLEKLKAKDKEADERFLKELEEAAKEYAKDEAKTMSEEEAKRRAKKYKEKVLLSELSEEEQKEIKEAEEKLVRTILKYVEEAAK", "values": [{"measurement": "apparent Kd (screen)", "value": 0.446, "unit": "nM"}]}
{"binder": "K15Y (designed binder) SMEEEVEKAAKEYEYKKKEAIEKHLEKLKAKDKEAAERFLKELEEAAKEYAKDEAKTMSEEEAKRRAKKYKEKVLLSELSEEEQKEIKEAEEKLVRTILKYVEEAAK", "values": [{"measurement": "apparent Kd (screen)", "value": 0.446, "unit": "nM"}]}
{"binder": "E14Q (designed binder) SMEEEVEKAAKEYQKKKKEAIEKHLEKLKAKDKEAAERFLKELEEAAKEYAKDEAKTMSEEEAKRRAKKYKEKVLLSELSEEEQKEIKEAEEKLVRTILKYVEEAAK", "values": [{"measurement": "apparent Kd (screen)", "value": 4.83, "unit": "nM"}]}
{"binder": "E34S (designed binder) SMEEEVEKAAKEYEKKKKEAIEKHLEKLKAKDKSAAERFLKELEEAAKEYAKDEAKTMSEEEAKRRAKKYKEKVLLSELSEEEQKEIKEAEEKLVRTILKYVEEAAK", "values": [{"measurement": "apparent Kd (screen)", "value": 0.718, "unit": "nM"}]}
{"binder": "R65N (designed binder) SMEEEVEKAAKEYEKKKKEAIEKHLEKLKAKDKEAAERFLKELEEAAKEYAKDEAKTMSEEEAKNRAKKYKEKVLLSELSEEEQKEIKEAEEKLVRTILKYVEEAAK", "values": [{"measurement": "apparent Kd (screen)", "value": 1.4, "unit": "nM"}]}
{"binder": "K8C (designed binder) SMEEEVECAAKEYEKKKKEAIEKHLEKLKAKDKEAAERFLKELEEAAKEYAKDEAKTMSEEEAKRRAKKYKEKVLLSELSEEEQKEIKEAEEKLVRTILKYVEEAAK", "values": [{"measurement": "apparent Kd (screen)", "value": 0.956, "unit": "nM"}]}
{"binder": "Y70S (designed binder) SMEEEVEKAAKEYEKKKKEAIEKHLEKLKAKDKEAAERFLKELEEAAKEYAKDEAKTMSEEEAKRRAKKSKEKVLLSELSEEEQKEIKEAEEKLVRTILKYVEEAAK", "values": [{"measurement": "apparent Kd (screen)", "value": 4.83, "unit": "nM"}]}
{"binder": "E83G (designed binder) SMEEEVEKAAKEYEKKKKEAIEKHLEKLKAKDKEAAERFLKELEEAAKEYAKDEAKTMSEEEAKRRAKKYKEKVLLSELSEEGQKEIKEAEEKLVRTILKYVEEAAK", "values": [{"measurement": "apparent Kd (screen)", "value": 1.69, "unit": "nM"}]}
{"binder": "K85N (designed binder) SMEEEVEKAAKEYEKKKKEAIEKHLEKLKAKDKEAAERFLKELEEAAKEYAKDEAKTMSEEEAKRRAKKYKEKVLLSELSEEEQNEIKEAEEKLVRTILKYVEEAAK", "values": [{"measurement": "apparent Kd (screen)", "value": 0.446, "unit": "nM"}]}
{"binder": "A106K (designed binder) SMEEEVEKAAKEYEKKKKEAIEKHLEKLKAKDKEAAERFLKELEEAAKEYAKDEAKTMSEEEAKRRAKKYKEKVLLSELSEEEQKEIKEAEEKLVRTILKYVEEAKK", "values": [{"measurement": "apparent Kd (screen)", "value": 0.593, "unit": "nM"}]}
{"binder": "E37A (designed binder) SMEEEVEKAAKEYEKKKKEAIEKHLEKLKAKDKEAAARFLKELEEAAKEYAKDEAKTMSEEEAKRRAKKYKEKVLLSELSEEEQKEIKEAEEKLVRTILKYVEEAAK", "values": [{"measurement": "apparent Kd (screen)", "value": 0.49, "unit": "nM"}]}
